Experiment [1] has as its target T1, recombinant human IL-27 (human, UniProt Q14213 21-229; Q8NEV9 29-243).
T1 sequence 1: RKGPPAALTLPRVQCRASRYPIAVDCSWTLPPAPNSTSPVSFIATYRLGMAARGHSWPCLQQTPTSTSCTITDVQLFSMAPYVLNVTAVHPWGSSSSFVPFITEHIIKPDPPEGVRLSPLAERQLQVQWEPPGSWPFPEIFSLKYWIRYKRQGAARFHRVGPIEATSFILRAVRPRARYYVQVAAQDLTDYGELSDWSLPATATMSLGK
T1 sequence 2: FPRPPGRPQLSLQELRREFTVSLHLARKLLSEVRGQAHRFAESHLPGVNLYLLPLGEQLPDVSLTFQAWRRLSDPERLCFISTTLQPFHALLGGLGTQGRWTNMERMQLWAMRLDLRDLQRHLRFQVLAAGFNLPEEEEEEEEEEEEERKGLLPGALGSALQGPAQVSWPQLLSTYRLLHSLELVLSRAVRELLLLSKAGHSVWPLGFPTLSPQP
The experiment is described as follows: cell-based or functional assay.

Experiment [2] has as its target T1, recombinant human IL-27. The experiment is described as follows: cell-based or functional assay. This is another data set of the same source.
The target of experiment [3] is T2, recombinant mouse IL-27 (mouse, UniProt O35228 19-228; Q8K3I6 29-234, limits assumed).
T2 sequence (looked up) 1: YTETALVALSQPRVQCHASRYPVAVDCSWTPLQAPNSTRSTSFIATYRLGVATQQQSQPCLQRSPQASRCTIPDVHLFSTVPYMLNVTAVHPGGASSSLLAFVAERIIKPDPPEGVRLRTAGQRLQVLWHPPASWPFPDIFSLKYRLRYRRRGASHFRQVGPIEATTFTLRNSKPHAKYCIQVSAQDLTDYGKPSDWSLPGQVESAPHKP
T2 sequence (looked up) 2: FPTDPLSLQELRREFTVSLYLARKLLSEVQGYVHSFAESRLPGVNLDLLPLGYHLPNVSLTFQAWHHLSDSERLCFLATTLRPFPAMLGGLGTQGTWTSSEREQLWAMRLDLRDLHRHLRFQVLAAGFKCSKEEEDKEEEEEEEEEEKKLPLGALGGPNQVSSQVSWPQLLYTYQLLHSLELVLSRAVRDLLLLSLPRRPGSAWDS
The experiment is described as follows: cell-based or functional assay.

Experiment [4] deals with T3, recombinant rat IL-27 (rat, UniProt D3ZPW3 29-234; M0RD76 19-228).
T3 sequence (alpha): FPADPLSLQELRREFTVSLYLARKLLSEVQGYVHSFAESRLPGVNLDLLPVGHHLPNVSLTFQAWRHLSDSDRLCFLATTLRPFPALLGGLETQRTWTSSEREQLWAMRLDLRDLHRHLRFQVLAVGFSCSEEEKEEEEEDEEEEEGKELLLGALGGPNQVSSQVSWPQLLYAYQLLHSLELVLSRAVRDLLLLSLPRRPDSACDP
T3 sequence (beta): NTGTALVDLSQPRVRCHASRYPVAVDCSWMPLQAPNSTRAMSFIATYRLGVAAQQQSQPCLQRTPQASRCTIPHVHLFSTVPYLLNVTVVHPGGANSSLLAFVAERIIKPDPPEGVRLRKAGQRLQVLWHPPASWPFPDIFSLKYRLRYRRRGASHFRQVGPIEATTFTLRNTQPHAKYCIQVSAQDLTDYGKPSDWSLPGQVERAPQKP
The experiment is described as follows: cell-based or functional assay.

The target in experiment [5] is T4, recombinant cynomolgus monkey IL-27 (cynomolgus monkey, UniProt A0A2K5WPB7 36-244; A0A2K5UBM6 29-244).
T4 sequence 1: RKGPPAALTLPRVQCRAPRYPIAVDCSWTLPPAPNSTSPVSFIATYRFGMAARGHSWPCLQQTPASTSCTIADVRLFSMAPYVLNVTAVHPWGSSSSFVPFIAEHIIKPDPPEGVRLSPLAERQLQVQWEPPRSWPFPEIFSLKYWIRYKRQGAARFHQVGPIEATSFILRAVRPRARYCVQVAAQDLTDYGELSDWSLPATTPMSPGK
T4 sequence 2: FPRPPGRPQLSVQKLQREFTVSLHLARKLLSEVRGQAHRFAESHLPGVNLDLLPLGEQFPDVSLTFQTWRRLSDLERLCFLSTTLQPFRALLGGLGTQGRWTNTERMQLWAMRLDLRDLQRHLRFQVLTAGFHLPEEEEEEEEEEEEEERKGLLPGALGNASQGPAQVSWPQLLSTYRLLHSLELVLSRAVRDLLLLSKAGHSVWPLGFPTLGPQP
Put plainly: cell-based or functional assay.

A further experiment addresses T5, p28 subunit of IL-27 (Homo sapiens (Human), UniProt Q8NEV9 29-243, limits assumed).
T5 construct: the reagent used in the specificity studies is not described; also called IL-27p28
T5 sequence: T1 sequence 2
Put plainly: biochemical affinity and specificity studies.

The target in the next experiment is T6, EBI3 subunit of IL-27 (Homo sapiens (Human), UniProt Q14213 21-229, limits assumed).
T6 construct: the reagent used in the specificity studies is not described
T6 sequence: T1 sequence 1
The experiment is described as follows: biochemical affinity and specificity studies.

Experiment [6] deals with T1, recombinant human IL-27. Put plainly: SPR (BIACORE 2000) as the paragraph says; values in FIG. 9. Background: SPR reads the build-up and loss of mass on a sensor chip optically.
Experiment [7] deals with T2, recombinant mouse IL-27. The experiment is described as follows: column 'Affinity mIL-27 (M)'; method not given.
The target of experiment [8] is T2, recombinant mouse IL-27. The experiment is described as follows: binding kinetics, SRF388 with IL-27 as analyte (instrument not named).
In experiment [9] the target is T3, recombinant rat IL-27. The description is as above.
Experiment [10] deals with T4, recombinant cynomolgus monkey IL-27. Described as above.
Experiment [11] deals with T1, recombinant human IL-27. The experiment is described as follows: binding kinetics, SRF388 at 1 ug/mL, IL-27 as analyte at 0 to 5.0 ug/mL (instrument not named). As to the method: The association and dissociation of recombinant human IL-27 at concentrations ranging from 0 to 5.0 μg/mL with an SRF388 concentration of 1 μg/mL were determined.
Experiment [12] concerns the target T1, recombinant human IL-27. Put plainly: column 'Affinity hIL-27 (M)', property (i); method not given, paragraph 885 names SPR (BIACORE 2000).

B1: SRF388 (antibody, V domains shown)
VH: EVQLVESGGGLVKPGGSLRLSCAASGFTFRSYGMNWVRQAPGKGLEWVSGISSSGSYIYYADSVKGRFTISRDNAKNSLYLQMNSLRAEDTAVYYCARDGGRTSYTATAHNWFDPWGQGTLVTVSS
VL: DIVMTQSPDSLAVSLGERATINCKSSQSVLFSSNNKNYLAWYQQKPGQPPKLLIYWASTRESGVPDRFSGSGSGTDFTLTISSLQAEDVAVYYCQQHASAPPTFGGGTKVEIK
notes: also called SRF388-A; SRF388-B
For orientation: Kd means the concentration at which binding is half-saturated. For orientation: koff means the first-order rate constant of dissociation. One may read the kon as the second-order rate constant of association. For B1, in the experiment with recombinant human IL-27 [1], the “IC50 of inhibition of phosphorylation of STAT1 in HUT-78 cells” value turned out to be 95 ng/mL. In addition, the “IC50 of inhibition of phosphorylation of STAT1 in U937 cells” value with recombinant human IL-27 [1] was found to be 96 ng/mL. In the experiment with recombinant human IL-27 [1], the “IC50 of inhibition of phosphorylation of STAT1 in pooled human PBMCs” value worked out at 58.3 ng/mL. Moreover, the “Average IC50, pSTAT1 in peripheral blood T cells, human whole blood” value in the experiment with recombinant human IL-27 [2] stood at 78.4 ng/mL. Further, in the experiment with recombinant mouse IL-27 [3], the “Average IC50, pSTAT1 in peripheral blood T cells, mouse whole blood” value was found to be 1720 ng/mL. For the same molecule, the “Average IC50, pSTAT1 in peripheral blood T cells, rat whole blood” value with recombinant rat IL-27 [4] was found to be 273 ng/mL. The “Average IC50, pSTAT1 in peripheral blood T cells, cynomolgus monkey whole blood” value in experiment [5] was found to be 118 ng/mL. The binding result with p28 subunit of IL-27 is on record as “binds”; with EBI3 subunit of IL-27, “no binding”. The Kd with recombinant human IL-27 [6] is at most 15 nM; in the experiment with recombinant mouse IL-27 [7], 0.594 nM; with recombinant mouse IL-27 [8] it was 4.43 nM; with recombinant rat IL-27 [9], 0.0809 nM; in experiment [10], 0.0374 nM; with recombinant human IL-27 [11] it was 3.86 pM. For the same molecule, the Kd in the experiment with recombinant human IL-27 [12] was 1.3 pM. In addition, the koff with recombinant mouse IL-27 [8] was 0.000244 s⁻¹; with recombinant rat IL-27 [9], 0.000189 s⁻¹; in experiment [10], 1.19e-05 s⁻¹; with recombinant human IL-27 [11] it was 1.97e-06 s⁻¹. In addition, the kon with recombinant mouse IL-27 [8] was 55000 M⁻¹ s⁻¹; with recombinant rat IL-27 [9], 2.34e+06 M⁻¹ s⁻¹; in experiment [10] it was 318000 M⁻¹ s⁻¹; with recombinant human IL-27 [11], 510000 M⁻¹ s⁻¹.

These data come from patent publication US20190382474A1 (SURFACE ONCOLOGY, published 2019).
